# PMC4190031 (Cell, 2014)
# Square brackets hold non-standard residues; d marks the D form. Ends that are not written are not given here.
# T1: MitTx β subunit (Texas coral snake, UniProt G9I930 31-149)
# T1 sequence: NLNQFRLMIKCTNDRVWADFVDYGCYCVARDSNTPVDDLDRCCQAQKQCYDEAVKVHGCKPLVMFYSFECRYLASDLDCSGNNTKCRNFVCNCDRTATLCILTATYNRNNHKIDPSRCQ
# B1: MitTx α subunit (natural protein)
# chain: [PCA]IRPAFCYEDPPFFQKCGAFVDSYYFNRSRITCVHFFYGQCDVNQNHFTTMSECNRVCHG
# modifications: cysteine pairing not given here
# Molecular target: T1, MitTx β subunit
# Test: crystal structure
binder,measurement,value
B1,binding result,binds
